Read-outs that look alike come from different tables or passages of the source.
Legend:
bFGF (FGF-2) = bFGF (FGF-2) (Homo sapiens, UniProt P09038); experiment: Equilibrium binding of bFGF (FGF-2) to FN and FN domains; conditions: method not restated (equilibrium and kinetic binding performed); read-out: KD, bFGF binding
Experimental: [The source words this procedure for another target and reports this target under the same test.] (§1) 20 μl of 50% v/v peptide-agarose beads are incubated with 125I-PDGF in 0.1 ml of binding buffer (DMEM+2% BSA) at room temperature for 2 hours with rotation. Beads are washed 6 times with DMEM. Bound PDGF-BB are released by the addition of 100 μl of 1M NaOH. The radioactivity bound to FN-beads are quantified in a γ-counter. Nonspecific binding are established from ^125I-PDGF binding to nonconjugated beads, then specific binding derived by subtraction of nonspecific binding from total binding. Binding constants (KD) and Bmax are determined from nonlinear regression of specific binding curves using Prism 4 from GraphPad Software, San Diego, Calif. “Scatchard plots” are derived from the KD and Bmax obtained with non linear regression analysis.

TGF-β1 [1] = target: T1, TGF-β1 (Homo sapiens, UniProt P01137); experiment: Surface plasmon resonance, TGF-β1; assay type: binding
Experimental: [The source words this procedure for another target and reports this target under the same test.] (§2) In the Biacore2000 system, binding constants from kinetic data are determined by passing varying concentrations of FN peptides (analytes) over chip surfaces which are coupled with PDGF-BB (ligand), respectively. All kinetic experiments are carried out at 20° C. at a flow rate of 20 μl/min. For mass transport experiments, each analyte is injected at a fixed concentration and run at flow rates ranging from 5 to 75 μl/min. All analytes are injected over PDGF-BB ligand surfaces as well as over a control surface for 120 s, followed by 300 s of dissociation in running buffer. Regeneration of the sensor chip for subsequent injections is accomplished by pulse of 0.1% SDS. Mass transport experiments have detected little difference in response at different flow rates thus validating data from kinetic experiments. Sensorgrams are prepared and globally fitted using nonlinear least-squares analysis and numerical integration of the differential rate equations with the Biacore Bioevaluation software. Each sensogram generated using a control surface is substracted from the corresponding experimental sensorgrams, and the resulting curves are transformed to concentration units using the molecular mass of the injected species, the equivalence of 1000 resonance units (RU) per 1 ng/mm^2, and a matrix thickness of 100 nm. Each data set, which consists of a series of sensorgrams from injections of different concentration of analyte over the same surface, are analyzed using kinetic models from Biaevaluation software.

TGF-β1 [2] = target: T1, TGF-β1; experiment: Equilibrium binding of TGF-β1 to FN, FN domains and peptides
Experimental: [The source words this procedure for another target and reports this target under the same test.] as §1

FGF-2 = FGF-2 (Homo sapiens, UniProt P09038); experiment: Surface plasmon resonance, FGF-2; conditions: read-out: KD, FGF-2 binding
Experimental: [The source words this procedure for another target and reports this target under the same test.] as §2, with “Each sensogram generated using a control surface is substracted from the corresponding experimental sensorgrams, and the resulting curves are transformed to concentration units using the molecular mass of the injected species, the equivalence of 1000 resonance units (RU) per 1 ng/mm^2, and a matrix thickness of 100 nm.” left out

PDGF-BB [3] = target: T2, PDGF-BB (Homo sapiens, UniProt P01127); experiment: Surface plasmon resonance (Biacore), PDGF-BB; assay type: binding
Experimental: as §2

PDGF-BB [4] = target: T2, PDGF-BB; experiment: Equilibrium binding of 125I-PDGF-BB to FN, FN domains and peptides; conditions: for Kd: equilibrium binding
Experimental: as §1

[5] = test system: GFs (TGF-β1, PDGF-BB, VEGF, FGF-2); experiment: Binding of growth factors to FN domains, GFs reported together
Experimental: as §1
In the Biacore2000 system, binding constants from kinetic data are determined by passing varying concentrations of FN peptides (analytes) over chip surfaces which are coupled with PDGF-BB (ligand), respectively. All kinetic experiments are carried out at 20° C. at a flow rate of 20 μl/min. […] Mass transport experiments have detected little difference in response at different flow rates thus validating data from kinetic experiments. […] Each data set, which consists of a series of sensorgrams from injections of different concentration of analyte over the same surface, are analyzed using kinetic models from Biaevaluation software.

FN-null cells = experiment: FN-null cell survival on surfaces coated with FN domains; assay type: cell-based, mouse; conditions: for FN-null cell survival / proliferation: FNIII8-11 ± named FN domain, or named FN construct, PDGF-BB added 2 hrs after plating; for FN-null cell survival with PDGF at 3 days: surface precoated with 0.15 μM GST-tagged FNIII8-11 ± named FN domain, or named FN construct, PDGF-BB added 1 day after plating
Experimental: To further investigate the response of cells to PDGF-BB bound to FN domains, we investigated the survival response of mouse fibroblasts null for FN (FN−/−), or “FN-null”. First we determined the response of FN-null cells to PDGF-BB in the absence of serum or other sources of exogenous FN. […] Next, FN-null cells were plated on tissue culture plastic surfaces precoated with 0.15 μM GST-tagged FNIII8-11±other FN domains known to have PDGF-BB binding activity and then PDGF-BB added 1 day later. […] Importantly, differential response of FN-null cells, plated on different FN domains, to PDGF-BB was not secondary to differences in attachment as judged by cell counts two hours after plating. The FNIII8-11 central cell binding domain was present in all circumstances.

EGF = EGF (Homo sapiens, UniProt P01133); experiment: Binding of EGF to FN, FN domains and peptides
[6] = test system: GFs (TGF-β1, PDGF-BB, VEGF, FGF-2); experiment: Binding of growth factors to FN domains, GFs reported together; remark: listed apart in the source
VEGF = target: T3, VEGF (Homo sapiens, UniProt P15692); experiment: Surface plasmon resonance, VEGF; assay type: binding; conditions: plasmon resonance; read-out: KD, VEGF binding
T3 sequence (P15692 27-191 isoform P15692-4): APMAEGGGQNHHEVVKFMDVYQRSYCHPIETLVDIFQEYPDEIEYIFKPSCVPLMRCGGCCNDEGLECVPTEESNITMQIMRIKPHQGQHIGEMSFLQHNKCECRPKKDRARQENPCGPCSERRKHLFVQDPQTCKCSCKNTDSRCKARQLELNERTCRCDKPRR

[7] = method not restated, read-out: KD, TGF-β1 binding
[8] = method not restated (equilibrium and kinetic binding performed)
[9] = method not restated, read-out: KD, PDGF-BB binding
[10] = plasmon resonance, kinetic binding

T2 sequence (P01127 82-190 limits assumed): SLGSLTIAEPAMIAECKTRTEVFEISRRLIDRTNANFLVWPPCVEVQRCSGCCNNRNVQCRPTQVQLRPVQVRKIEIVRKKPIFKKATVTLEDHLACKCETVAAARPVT
Chain of bFGF (FGF-2) (P09038 143-288): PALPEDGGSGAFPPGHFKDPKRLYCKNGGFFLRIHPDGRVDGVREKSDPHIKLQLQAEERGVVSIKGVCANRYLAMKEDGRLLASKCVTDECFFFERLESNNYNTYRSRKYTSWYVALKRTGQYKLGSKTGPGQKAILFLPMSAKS
T1 sequence (P01137 279-390 limits assumed): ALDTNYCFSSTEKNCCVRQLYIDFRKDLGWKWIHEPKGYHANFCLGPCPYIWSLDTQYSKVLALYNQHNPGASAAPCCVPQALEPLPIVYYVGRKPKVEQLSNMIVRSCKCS
Chain of FGF-2 (P09038 143-288): as the sequence (P09038 143-288) above
Chain of EGF (P01133 971-1023 limits assumed, species assumed): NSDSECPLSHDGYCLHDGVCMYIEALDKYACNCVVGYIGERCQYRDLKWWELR

B1: FNIII12-15: heparin II binding domain of FN (protein)
chain: MGSTIPAPTDLKFTQVTPTSLSAQWTPPNVQLTGYRVRVTPKEKTGPMKEINLAPDSSSVVVSGLMVATKYEVSVYALKDTLTSRPAQGVVTTLENVSPPRRARVTDATETTITISWRTKTETITGFQVDAVPANGQTPIQRTIKPDVRSYTITGLQPGTDYKIYLYTLNDNARSSPVVIDASTAIDAPSNLRFLATTPNSLLVSWQPPRARITGYIIKYEKPGSPPREVVPRPRPGVTEATITGLEPGTEYTIYVIALKNNQKSEPLIGRKKTGQEALSQTTISWAPFQDTSEYIISCHPVGTDEEPLQFRVPGTSTSATLTGLTRGATYNVIVEALKDQQRHKVREEVVTVGNSVNEGTSHHHHHHC
- Kd (bFGF (FGF-2)): 130 nM
- Kd (TGF-β1 [1]; [7]): 16 nM
- Kd (TGF-β1 [2]; [8]): 16 nM
- Kd (FGF-2; method not restated): 170 nM
- Kd (PDGF-BB [3]; [9]): 6.8 nM
- Kd (PDGF-BB [4]): 6.8 nM

B2: FNIII1-7: FN domain, type III repeats 1-7 (protein)
chain: MGSGPVEVFITETPSQPNSHPIQWNAPQPSHISKYILRWRPKNSVGRWKEATIPGHLNSYTIKGLKPGVVYEGQLISIQQYGHQEVTRFDFTTTSTSTPVTSNTVTGETTPFSPLVATSESVTEITASSFVVSWVSASDTVSGFRVEYELSEEGDEPQYLDLPSTATSVNIPDLLPGRKYIVNVYQISEDGEQSLILSTSQTTAPDAPPDTTVDQVDDTSIVVRWSRPQAPITGYRIVYSPSVEGSSTELNLPETANSVTLSDLQPGVQYNITIYAVEENQESTPVVIQQETTGTPRSDTVPSPRDLQFVEVTDVKVTIMWTPPESAVTGYRVDVIPVNLPGEHGQRLPISRNTFAEVTGLSPGVTYYFKVFAVSHGRESKPLTAQQTTKLDAPTNLQFVNETDSTVLVRWTPPRAQITGYRLTVGLTRRGQPRQYNVGPSVSKYPLRNLQPASEYTVSLVAIKGNQESPKATGVFTTLQPGSSIPPYNTEVTETTIVITWTPAPRIGFKLGVRPSQGGEAPREVTSDSGSIVVSGLTPGVEYVYTIQVLRDGQERDAPIVNKVVTPLSPPTNLHLEANPDTGVLTVSWERSTTPDITGYRITTTPTNGQQGNSLEEVVHADQSSCTFDNLSPGLEYNVSVYTVKDDKESVPISDTIIPETSHHHHHHC
- Kd (bFGF (FGF-2)): 4.1 nM
- Kd (TGF-β1 [1]; [10]): 18 nM
- Kd (TGF-β1 [2]; equilibrium binding): 17 nM
- Kd (PDGF-BB [3]; [10]): 100 nM
- Kd (PDGF-BB [4]): 75 nM
- Binding of the GFs tested, in words [5]: all four GFs bound

B3: FNIII12-14: recombinant heparinII-binding domain of FN, type III repeats 12-14 (protein)
chain: MGSAIPAPTDLKFTQVTPTSLSAQWTPPNVQLTGYRVRVTPKEKTGPMKEINLAPDSSSVVVSGLMVATKYEVSVYALKDTLTSRPAQGVVTTLENVSPPRRARVTDATETTITISWRTKTETITGFQVDAVPANGQTPIQRTIKPDVRSYTITGLQPGTDYKIYLYTLNDNARSSPVVIDASTAIDAPSNLRFLATTPNSLLVSWQPPRARITGYIIKYEKPGSPPREVVPRPRPGVTEATITGLEPGTEYTIYVIALKNNQKSEPLIGRKKTTSHHHHHHC
- Kd (bFGF (FGF-2)): 1.9 nM
- Kd (TGF-β1 [1]; [7]): 7.6 nM
- Kd (TGF-β1 [2]; [8]): 7.6 nM
- Kd (PDGF-BB [3]; [9]): 55 nM
- Kd (PDGF-BB [4]): 35 nM
- FN-null cell survival / proliferation (FN-null cells): enhance survival
- FN-null cell survival with PDGF at 3 days (FN-null cells): increased survival

B4: FNIII3-6: recombinant FN domain, type III repeats 3-6 (protein)
chain: MGSAPPDTTVDQVDDTSIVVRWSRPQAPITGYRIVYSPSVEGSSTELNLPETANSVTLSDLQPGVQYNITIYAVEENQESTPVVIQQETTGTPRSDTVPSPRDLQFVEVTDVKVTIMWTPPESAVTGYRVDVIPVNLPGEHGQRLPISRNTFAEVTGLSPGVTYYFKVFAVSHGRESKPLTAQQTTKLDAPTNLQFVNETDSTVLVRWTPPRAQITGYRLTVGLTRRGQPRQYNVGPSVSKYPLRNLQPASEYTVSLVAIKGNQESPKATGVFTTLQPGSSIPPYNTEVTETTIVITWTPAPRIGFKLGVRPSQGGEAPREVTSDSGSIVVSGLTPGVEYVYTIQVLRDGQERDAPIVNKVVTPLSTSHHHHHHC
- PDGF-BB binding, in words (PDGF-BB [3]; surface resonance): no binding
- PDGF-BB binding, in words (PDGF-BB [4]; equilibrium binding and/or plasmon resonance): did not
- Binding of the GFs tested, in words [5]: In no case did any GF bind
- FN-null cell survival / proliferation, summary statement (FN-null cells; cells plated on named FN construct, or on FNIII8-11 ± named domain): did not support cell survival

B5: IIICS: variably-spliced IIICS domain of FN (protein)
chain: MGSDELPQLVTLPHPNLHGPEILDVPSTVQKTPFVTHPGYDTGNGIQLPGTSGQQPSVGQQMIFEEHGFRRTTPPTTATPIRHRPRPYPPNVGEEIQIGHIPREDVDYHLYPHGPGLNPNASTTSHHHHHHC
- EGF binding, in words (EGF): failed to bind
- Kd (TGF-β1 [2]; [8]): 74 nM
- Kd (PDGF-BB [4]): 350 nM
- FN-null cell survival / proliferation (FN-null cells): enhance survival
- FN-null cell survival with PDGF at 3 days (FN-null cells): increased survival

B6: FNIII12-V15: composite heparinII-binding and variably-spliced IIICS domains of FN (protein)
chain: MGSAIPAPTDLKFTQVTPTSLSAQWTPPNVQLTGYRVRVTPKEKTGPMKEINLAPDSSSVVVSGLMVATKYEVSVYALKDTLTSRPAQGVVTTLENVSPPRRARVTDATETTITISWRTKTETITGFQVDAVPANGQTPIQRTIKPDVRSYTITGLQPGTDYKIYLYTLNDNARSSPVVIDASTAIDAPSNLRFLATTPNSLLVSWQPPRARITGYIIKYEKPGSPPREVVPRPRPGVTEATITGLEPGTEYTIYVIALKNNQKSEPLIGRKKTDELPQLVTLPHPNLHGPEILDVPSTVQKTPFVTHPGYDTGNGIQLPGTSGQQPSVGQQMIFEEHGFRRTTPPTTATPIRHRPRPYPPNVGEEIQIGHIPREDVDYHLYPHGPGLNPNASTGQEALSQTTISWAPFQDTSEYIISCHPVGTDEEPLQFRVPGTSTSATLTGLTRGATYNVIVEALKDQQRHKVREEVVTVGNSVNEGTSHHHHHHC
- Kd (bFGF (FGF-2)): 37 nM
- GF binding with up to 2.5 M NaCl or pH lowered to about 2.0 [6]: failed to demonstrate any diminution
- Kd (TGF-β1 [2]; equilibrium binding): 97 nM
- Kd (VEGF): 0.6 nM
- Kd (FGF-2; plasmon resonance): 37 nM
- Kd (PDGF-BB [3]; [10]): 17 nM
- Kd (PDGF-BB [4]): 21 nM
- FN-null cell survival / proliferation (FN-null cells): enhance survival

B7: FNIII12-13: FN domain, type III repeats 12-13 (protein)
chain: MGSAIPAPTDLKFTQVTPTSLSAQWTPPNVQLTGYRVRVTPKEKTGPMKEINLAPDSSSVVVSGLMVATKYEVSVYALKDTLTSRPAQGVVTTLENVSPPRRARVTDATETTITISWRTKTETITGFQVDAVPANGQTPIQRTIKPDVRSYTITGLQPGTDYKIYLYTLNDNARSSPVVIDASTTSHHHHHHC
- Kd (PDGF-BB [4]): 75 nM
